These results are taken from publication doi:10.1101/2025.02.07.637115 (bioRxiv, 2025).

B1: BMP6, mammalian expressed (glycosylated), recombinant human (ligand)
chain: SASSRRRQQSRNRSTQSQDVARVSSASDYNSSELKTACRKHELYVSFQDLGWQDWIIAPKGYAANYCDGECSFPLNAHMNATNHAIVQTLVHLMNPEYVPKPCCAPTKLNAISVLYFDDNSNVILKKYRNMVVRACGCH
modifications: N-linked glycosylation at Asn454 (prehelix loop)
B2: deglycosylated BMP6 (ligand)
chain: B1 chain
modifications: deglycosylated with PNGase F
B3: ActRIIB2-Fc (trap containing two ActRIIB ECDs) (Fc fusion)
chain: SGRGEAETRECIYYNANWELERTNQSGLERCEGEQDKRLHCYASWRNSSGTIELVKKGCWLDDFNCYDRQECVATEENPQVYFCCCEGNFCNERFTHLPEAGGPEVTYEPPPTAP
B4: ALK3 extracellular domain (ALK3 arm of ALK3-ActRIIB in the cryoEM structure) (domain or fragment)
chain: QNLDSMLHGTGMKSDSDQKKSENGVTLAPEDTLPFLKCYCSGHCPDDAINNTCITNGHCFAIIEEDDQGETTLASGCMKYEGSDFQCKDSPKAQLRRTIECCRTNLCNQYLQPTLPPVVIGPFFDGSIR
B5: ALK3-Fc (homodimeric Fc-fusion of ALK3-ECD) (Fc fusion)
chain: B4 chain

Series [1] has as its target ActRIIB1-Fc (trap with a single ActRIIB ECD) (human). As to the kind of experiment: SPR. On the technique in general: In SPR one partner is held on a chip, and binding of the other changes the refractive index at the surface.
Series [2] addresses ALK2-ActRIIB-Fc heterodimeric trap (human, UniProt Q04771;Q13705). As to the kind of experiment: SPR.
For series [3], the target named is ALK3-ActRIIB-Fc heterodimeric trap (human, UniProt P36894;Q13705). The series can be described thus: SPR.
The series “cryo-EM structure” deals with the molecule itself. The series can be described thus: cryo-EM structure.
Series [4] concerns the target B1. As to the kind of experiment: SPR.
Series [5] has as its target B1. As to the kind of experiment: cryo-EM structure.

Chain of ALK2-ActRIIB-Fc heterodimeric trap (Q04771 21-123, one chain of several): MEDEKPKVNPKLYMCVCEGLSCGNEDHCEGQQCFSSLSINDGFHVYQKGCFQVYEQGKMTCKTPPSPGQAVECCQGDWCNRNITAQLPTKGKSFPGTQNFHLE

By Kd is commonly meant the concentration at which binding is half-saturated. “BMP6, mammalian expressed (glycosylated), recombinant human (from UniProt P22004 375-513) (ligand)” yielded a Kd in series [1] of 282 pM.
As for B1, the Kd amounted to 36 pM in series [2] and 51.7 pM in series [3]. Besides, the binding result in the series “cryo-EM structure” is “binds”.
As to B2, the Kd stood at 164 pM in series [2] and 71.4 pM in series [3].
Take B3: the Kd in series [4] came to 124 pM.
Take B4: in series [5], the binding result is on record as “binds”.
For the molecule B5, the binding result in series [4] was “binds”.
